According to PMC10544015 (Journal of Medicinal Chemistry, 2023):
Bridge positions count the residues as written; N and C are the ends. Square brackets hold non-standard residues; d marks the D form. Triazole bridges read from a SMILES are 1,4-linked. Peptide text beside a SMILES is read from it. Lys(N3) = [N-]=[N+]=NCCCC[C@H](N)C(=O)O; Orn(N3) = [N-]=[N+]=NCCC[C@H](N)C(=O)O; Hpra = C#CCC[C@H](N)C(=O)O; Pra = C#CC[C@H](N)C(=O)O

Experiment: circular dichroism
Details: PBS (10 mM phosphate, 137 mM NaCl, 2.7 mM KCl); pH 7.4; rt °C; 100 uM
Compound CC(=O)N[C@@H](CO)C(=O)N[C@@H](Cc1c[nH]c2ccccc12)C(=O)N[C@@H](CCCNC(=N)N)C(=O)N[C@@H](CCC(N)=O)C(=O)N[C@@H](C)C(=O)N[C@@H]1Cc2cn(nn2)CCCC[C@@H](C(=O)N[C@@H](Cc2ccc(O)cc2)C(N)=O)NC(=O)[C@H](CC(=O)O)NC(=O)[C@H](C(C)C)NC(=O)[C@H](Cc2ccccc2)NC1=O has a helicity of 7%. With CC(=O)N[C@@H]1Cc2cn(nn2)CCCC[C@@H](C(=O)N[C@@H](C)C(=O)N[C@@H](Cc2ccccc2)C(=O)N[C@H](C(=O)N[C@@H](CC(=O)O)C(=O)N[C@@H](CO)C(=O)N[C@@H](Cc2ccc(O)cc2)C(N)=O)C(C)C)NC(=O)[C@H](CCC(N)=O)NC(=O)[C@H](CCCNC(=N)N)NC(=O)[C@H](Cc2c[nH]c3ccccc23)NC1=O the helicity was 18%. Work on CC(=O)N[C@@H](CO)C(=O)N[C@@H](Cc1c[nH]c2ccccc12)C(=O)N[C@@H](CCCNC(=N)N)C(=O)N[C@@H](CCC(N)=O)C(=O)N[C@@H](C)C(=O)N[C@@H](C)C(=O)N[C@@H](Cc1ccccc1)C(=O)N[C@H]1Cc2cn(nn2)CCCC[C@@H](C(N)=O)NC(=O)[C@H](Cc2ccc(O)cc2)NC(=O)[C@H](CO)NC(=O)[C@H](CC(=O)O)NC1=O (Ac-SWRQAAF[Pra]DSY[Lys(N3)]-NH2; triazole 8-12) yielded a helicity of 30%. Work on CC(=O)N[C@@H](CO)C(=O)N[C@@H](Cc1c[nH]c2ccccc12)C(=O)N[C@@H](CCCNC(=N)N)C(=O)N[C@@H](CCC(N)=O)C(=O)N[C@@H](C)C(=O)N[C@@H](C)C(=O)N[C@@H](Cc1ccccc1)C(=O)N[C@H]1Cc2cn(nn2)CCC[C@@H](C(N)=O)NC(=O)[C@H](Cc2ccc(O)cc2)NC(=O)[C@H](CO)NC(=O)[C@H](CC(=O)O)NC1=O (Ac-SWRQAAF[Pra]DSY[Orn(N3)]-NH2; triazole 8-12) yielded a helicity of 12%. In the case of CC(=O)N[C@@H](CO)C(=O)N[C@@H](Cc1c[nH]c2ccccc12)C(=O)N[C@@H](CCCNC(=N)N)C(=O)N[C@@H](CCC(N)=O)C(=O)N[C@@H](C)C(=O)N[C@@H](C)C(=O)N[C@H]1Cc2cn(nn2)CCCC[C@@H](C(N)=O)NC(=O)[C@H](CO)NC(=O)[C@H](CC(=O)O)NC(=O)[C@H](C(C)C)NC1=O (Ac-SWRQAA[Pra]VDS[Lys(N3)]-NH2; triazole 7-11), the helicity is reported as 37%. Work on CC(=O)N[C@@H](CO)C(=O)N[C@@H](Cc1c[nH]c2ccccc12)C(=O)N[C@@H](CCCNC(=N)N)C(=O)N[C@@H](CCC(N)=O)C(=O)N[C@@H](C)C(=O)N[C@@H](C)C(=O)N[C@H]1Cc2cn(nn2)CCC[C@@H](C(N)=O)NC(=O)[C@H](CO)NC(=O)[C@H](CC(=O)O)NC(=O)[C@H](C(C)C)NC1=O (Ac-SWRQAA[Pra]VDS[Orn(N3)]-NH2; triazole 7-11) yielded a helicity of 6%. With CC(=O)N[C@@H](CO)C(=O)N[C@@H](Cc1c[nH]c2ccccc12)C(=O)N[C@@H](CCCNC(=N)N)C(=O)N[C@@H](CCC(N)=O)C(=O)N[C@@H](C)C(=O)N[C@H]1CCc2cn(nn2)CCCC[C@@H](C(=O)N[C@@H](Cc2ccc(O)cc2)C(N)=O)NC(=O)[C@H](CC(=O)O)NC(=O)[C@H](C(C)C)NC(=O)[C@H](Cc2ccccc2)NC1=O (Ac-SWRQA[Hpra]FVD[Lys(N3)]Y-NH2; triazole 6-10) the helicity was 28%. Work on CC(=O)N[C@@H](CO)C(=O)N[C@@H](Cc1c[nH]c2ccccc12)C(=O)N[C@@H](CCCNC(=N)N)C(=O)N[C@@H](CCC(N)=O)C(=O)N[C@@H](C)C(=O)N[C@H]1CCCCn2cc(nn2)C[C@@H](C(=O)N[C@@H](Cc2ccc(O)cc2)C(N)=O)NC(=O)[C@H](CC(=O)O)NC(=O)[C@H](C(C)C)NC(=O)[C@H](Cc2ccccc2)NC1=O (Ac-SWRQA[Lys(N3)]FVD[Pra]Y-NH2; triazole 6-10) yielded a helicity of 32%. For CC(=O)N[C@@H](CO)C(=O)N[C@@H](Cc1c[nH]c2ccccc12)C(=O)N[C@@H](CCCNC(=N)N)C(=O)N[C@@H](CCC(N)=O)C(=O)N[C@@H](C)C(=O)N[C@H]1Cc2cn(nn2)CCC[C@@H](C(=O)N[C@@H](Cc2ccc(O)cc2)C(N)=O)NC(=O)[C@H](CC(=O)O)NC(=O)[C@H](C(C)C)NC(=O)[C@H](Cc2ccccc2)NC1=O (Ac-SWRQA[Pra]FVD[Orn(N3)]Y-NH2; triazole 6-10), the helicity was 17%.
